In US5968526A, “T cell epitopes of the major allergens from Dermatophagoides (house dust mite)” (Immulogic Pharamaceutical Corporation, priority 1995, dated 1999):

B1: Der p I: affinity purified native group I allergen of Dermatophagoides pteronyssinus (protein)
chain: KNRFLMSAEAFEHLKTQFDLNAETNACSINGNAPAEIDLRQMRTVTPIRMQGGCGSCWAFSGVAATESAYLAHRNQSLDLAEQELVDCASQHGCHGDTIPRGIEYIQHNGVVQESYYRYVAREQSCRRPNAQRFGISNYCQIYPPNANKIREALAQTHSAIAVIIGIKDLDAFRHYDGRTIIQRDNGYQPNYHAVNIVGYSNAQGVDYWIVRNSWDTNWGDNGYGYFAANIDLMMIEEYPYVVIL
B2: biochemically purified Der f-- I: purified native group I allergen of Dermatophagoides farinae (protein)
chain: MKFVLAIASLLVLSTVYARPASIKTFEEFKKAFNKNYATVEEEEVARKNFLESLKYVEANKGAINHLSDLSLDEFKNRYLMSAEAFEQLKTQFDLNAETSACRINSVNVPSELDLRSLRTVTPIRMQGGCGSCWAFSGVAATESAYLAYRNTSLDLSEQELVDCASQHGCHGDTIPRGIEYIQQNGVVEERSYPYVAREQRCRRPNSQHYGISNYCQIYPPDVKQIREALTQTHTAIAVIIGIKDLRAFQHYDGRTIIQHDNGYQPNYHAVNIVGYGSTQGDDYWIVRNSWDTTWGDSGYGYFQAGNNLMMIEQYPYVVIM
B3: biochemically purified Der f II: purified native group II allergen of Dermatophagoides farinae (protein)
chain: DQVDVKDCANNEIKKVMVDGCHGSDPCIIHRGKPFTLEALFDANQNTKTAKTEIKASLDGLEIDVPGIDTNACHFMKCPLVKGQQYDAKYTWNVPKIAPKSENVVVTVKLVGDNGVLACAIATHAKIRD
B4: Der p II: affinity purified native group II allergen of Dermatophagoides pteronyssinus (protein)
chain: MMYKILCLSLLVAAVARDQVDVKDCANHEIKKVLVPGCHGSEPCIIHRGKPFQLEAVFEANQNTKTAKIEIKASIDGLEVDVPGIDPNACHYMKCPLVKGQQYDIKYTWNVPKIAPKSENVVVTVKVMGDDGVLACAIATHAKIRD

Tests used:
[1] = tested on: PBMC from mite-allergic patient; test: primary T cell (PBMC) proliferation, mite-allergic patient, tritiated thymidine; format: cell-based, human; details: for CPM ± S.D.: medium 1071 ± 30
Experimental: Peripheral blood mononuclear cells (PBMC) were purified by Ficoll-Hypaque centrifugation of a peripheral blood specimen from mite-allergic patient and were assayed for proliferation in response to various antigens, i.e., affinity-purified Der p I, affinity purified Der p II, various Der p I and Der p II peptides. For assay, 5×10^4 PBMC were cultured in triplicate microwells for 7 days at 37° C. in the presence of various concentrations of antigen in 200 μl RPMI-1640 containing 5% human AB serum. Each well then received 1 μCi tritiated thymidine for 16 hours. The counts incorporated were collected onto glass fiber filters and processed for liquid scintillation counting. […] The CPM +/- standard deviation are shown. The stimulation index of each response (S.I.) is the ratio of the ^3 H-thymidine CPM incorporated by the cells in response to antigen divided by the ^3 H-thymidine CPM incorporated by cells in medium only. […] Thus, these peptides contain Der p I or Der p II T cell epitopes recognized by T cells from this particular allergic patient.

human IgE = test: direct binding ELISA of IgE to mite allergen proteins and peptides; details: for IgE binding (ELISA), modified peptides: plasma of 19 mite-allergic patients and pool of 18, Example XV; for IgE binding (ELISA): pooled human plasma, 20 patients, FIGS. 19-21
Experimental: The coating antigens were removed and the wells are blocked with 0.5% gelatin in PBS, 300 μl/well for 2 hours at room temperature. Pooled human plasma (a mix of plasma samples from 20 patients that were skin test positive for commerical mite extract) was serially diluted with PBS-Tween 20 (PBS with 0.05% nonionic detergent Tween-20 Sigma, St. Louis, Mo.) and 100 μl/well a.backslash.was added and incubated overnight at 4° C. (plasma dilutions were tested in duplicate). The second antibody (biotinylated goat anti-Human IgE, 1:1000, Kirkegaard & Perry Laboratories Inc, Gaithersburg, Md.), was added at 100 μl/well for one hour at room temperature. This solution was removed and streptavidin-HRPO, 1:10000, (Southern Biotechnology Associates, Inc., Birmingham, Ala.) was then added at 100 μl/well for one hour at room temperature (all wells are washed three times with PBS-Tween between each incubation step). TMB Membrane Peroxidase Substrate system (Kirkegaard & Perry Laboratories) was freshly miced, and added at […]. The color was allowed to develop for 2-5 minutes. The reaction was stopped by the addition of […] of 1M phosphoric acid. Plates were read on a Microplate IL310 Autoreader (Biotech Instruments, Winooski, Vt.) with a 450 nm filter. The absorbance levels of duplicate wells were averaged. The order of coating antigens listed vertically in these figure legends corresponds in orDer from left to right to the coating antigens listed for each histogram.
The antigen preparation that was used as a positive control was a mixture of the four major biochemically purified mite allergens (term PMA for Purified Mite Allergen); Der f I, Der f II, Der p I and Der p II. The stock was generated at a concentration of 100 μgs of each protein per millimeter or 400 μgs total protein/ml. This preparation was used on each coated ELISA plate.

Molecule	S.I. ([1]; 10 μg/ml)	CPM ± S.D. ([1]; 10 μg/ml) [CPM]	S.I. ([1]; 30 μg/ml)	CPM ± S.D. ([1]; 30 μg/ml) [CPM]	S.I. ([1]; 100 μg/ml)	CPM ± S.D. ([1]; 100 μg/ml) [CPM]	IgE binding (ELISA), modified peptides (human IgE)	IgE binding (ELISA) (human IgE)
B1	0.9	920 ± 15	2.0	2122 ± 93	1.4	1492 ± 13	All samples did contain IgE	–
B2	–	–	–	–	–	–	–	binding
B3	–	–	–	–	–	–	–	binding
B4	1.0	1113 ± 35	2.0	2104 ± 43	1.0	1057 ± 27	All samples did contain IgE	good binding
